{"source": "patent US20260001928A1", "about": "(CORTERIA PHARMACEUTICALS, priority 2022, published 2026)", "binders": {"B1": {"name": "SEQ ID NO 24 (peptide)", "peptide": "[NMeI]VLSLD[dV]PIKLK([γGlu-C18 diacid])QILLKQERQKKQREQAEKNAQILEQV-NH2", "modifications": "N-terminus assumed", "SMILES": "CC[C@H](C)[C@H](NC)C(=O)N[C@H](C(=O)N[C@@H](CC(C)C)C(=O)N[C@@H](CO)C(=O)N[C@@H](CC(C)C)C(=O)N[C@@H](CC(=O)O)C(=O)N[C@@H](C(=O)N1CCC[C@H]1C(=O)N[C@H](C(=O)N[C@@H](CCCCN)C(=O)N[C@@H](CC(C)C)C(=O)N[C@@H](CCCCNC(=O)CC[C@H](NC(=O)CCCCCCCCCCCCCCCCC(=O)O)C(=O)O)C(=O)N[C@@H](CCC(N)=O)C(=O)N[C@H](C(=O)N[C@@H](CC(C)C)C(=O)N[C@@H](CC(C)C)C(=O)N[C@@H](CCCCN)C(=O)N[C@@H](CCC(N)=O)C(=O)N[C@@H](CCC(=O)O)C(=O)N[C@@H](CCCNC(=N)N)C(=O)N[C@@H](CCC(N)=O)C(=O)N[C@@H](CCCCN)C(=O)N[C@@H](CCCCN)C(=O)N[C@@H](CCC(N)=O)C(=O)N[C@@H](CCCNC(=N)N)C(=O)N[C@@H](CCC(=O)O)C(=O)N[C@@H](CCC(N)=O)C(=O)N[C@@H](C)C(=O)N[C@@H](CCC(=O)O)C(=O)N[C@@H](CCCCN)C(=O)N[C@@H](CC(N)=O)C(=O)N[C@@H](C)C(=O)N[C@@H](CCC(N)=O)C(=O)N[C@H](C(=O)N[C@@H](CC(C)C)C(=O)N[C@@H](CCC(=O)O)C(=O)N[C@@H](CCC(N)=O)C(=O)N[C@H](C(N)=O)C(C)C)[C@@H](C)CC)[C@@H](C)CC)[C@@H](C)CC)C(C)C)C(C)C"}, "B2": {"name": "SEQ ID NO 59 (peptide)", "peptide": "Ac-IVLSLD[dV]PIKLK([γGlu-C16 diacid])KILLEQEKQKKQREQAETN[Ac6c]QILAQV-NH2", "SMILES": "CC[C@H](C)[C@H](NC(C)=O)C(=O)N[C@H](C(=O)N[C@@H](CC(C)C)C(=O)N[C@@H](CO)C(=O)N[C@@H](CC(C)C)C(=O)N[C@@H](CC(=O)O)C(=O)N[C@@H](C(=O)N1CCC[C@H]1C(=O)N[C@H](C(=O)N[C@@H](CCCCN)C(=O)N[C@@H](CC(C)C)C(=O)N[C@@H](CCCCNC(=O)CC[C@H](NC(=O)CCCCCCCCCCCCCCC(=O)O)C(=O)O)C(=O)N[C@@H](CCCCN)C(=O)N[C@H](C(=O)N[C@@H](CC(C)C)C(=O)N[C@@H](CC(C)C)C(=O)N[C@@H](CCC(=O)O)C(=O)N[C@@H](CCC(N)=O)C(=O)N[C@@H](CCC(=O)O)C(=O)N[C@@H](CCCCN)C(=O)N[C@@H](CCC(N)=O)C(=O)N[C@@H](CCCCN)C(=O)N[C@@H](CCCCN)C(=O)N[C@@H](CCC(N)=O)C(=O)N[C@@H](CCCNC(=N)N)C(=O)N[C@@H](CCC(=O)O)C(=O)N[C@@H](CCC(N)=O)C(=O)N[C@@H](C)C(=O)N[C@@H](CCC(=O)O)C(=O)N[C@H](C(=O)N[C@@H](CC(N)=O)C(=O)NC1(C(=O)N[C@@H](CCC(N)=O)C(=O)N[C@H](C(=O)N[C@@H](CC(C)C)C(=O)N[C@@H](C)C(=O)N[C@@H](CCC(N)=O)C(=O)N[C@H](C(N)=O)C(C)C)[C@@H](C)CC)CCCCC1)[C@@H](C)O)[C@@H](C)CC)[C@@H](C)CC)C(C)C)C(C)C"}, "B3": {"name": "SEQ ID NO 142 (peptide)", "peptide": "[NMeI]VLSLD[dV]PIKLK([γGlu-C18 diacid])KILLEQEKQKKQREQAETNEQILAQV-NH2", "modifications": "N-terminus assumed", "SMILES": "CC[C@H](C)[C@H](NC)C(=O)N[C@H](C(=O)N[C@@H](CC(C)C)C(=O)N[C@@H](CO)C(=O)N[C@@H](CC(C)C)C(=O)N[C@@H](CC(=O)O)C(=O)N[C@@H](C(=O)N1CCC[C@H]1C(=O)N[C@H](C(=O)N[C@@H](CCCCN)C(=O)N[C@@H](CC(C)C)C(=O)N[C@@H](CCCCNC(=O)CC[C@H](NC(=O)CCCCCCCCCCCCCCCCC(=O)O)C(=O)O)C(=O)N[C@@H](CCCCN)C(=O)N[C@H](C(=O)N[C@@H](CC(C)C)C(=O)N[C@@H](CC(C)C)C(=O)N[C@@H](CCC(=O)O)C(=O)N[C@@H](CCC(N)=O)C(=O)N[C@@H](CCC(=O)O)C(=O)N[C@@H](CCCCN)C(=O)N[C@@H](CCC(N)=O)C(=O)N[C@@H](CCCCN)C(=O)N[C@@H](CCCCN)C(=O)N[C@@H](CCC(N)=O)C(=O)N[C@@H](CCCNC(=N)N)C(=O)N[C@@H](CCC(=O)O)C(=O)N[C@@H](CCC(N)=O)C(=O)N[C@@H](C)C(=O)N[C@@H](CCC(=O)O)C(=O)N[C@H](C(=O)N[C@@H](CC(N)=O)C(=O)N[C@@H](CCC(=O)O)C(=O)N[C@@H](CCC(N)=O)C(=O)N[C@H](C(=O)N[C@@H](CC(C)C)C(=O)N[C@@H](C)C(=O)N[C@@H](CCC(N)=O)C(=O)N[C@H](C(N)=O)C(C)C)[C@@H](C)CC)[C@@H](C)O)[C@@H](C)CC)[C@@H](C)CC)C(C)C)C(C)C"}, "B4": {"name": "SEQ ID NO 133 (peptide)", "peptide": "Ac-IVLSLD[dV]PIKLK([γGlu-C18 diacid])KILLEQEKQKKQREQAETN[ThP]QILAQV-NH2", "SMILES": "CC[C@H](C)[C@H](NC(C)=O)C(=O)N[C@H](C(=O)N[C@@H](CC(C)C)C(=O)N[C@@H](CO)C(=O)N[C@@H](CC(C)C)C(=O)N[C@@H](CC(=O)O)C(=O)N[C@@H](C(=O)N1CCC[C@H]1C(=O)N[C@H](C(=O)N[C@@H](CCCCN)C(=O)N[C@@H](CC(C)C)C(=O)N[C@@H](CCCCNC(=O)CC[C@H](NC(=O)CCCCCCCCCCCCCCCCC(=O)O)C(=O)O)C(=O)N[C@@H](CCCCN)C(=O)N[C@H](C(=O)N[C@@H](CC(C)C)C(=O)N[C@@H](CC(C)C)C(=O)N[C@@H](CCC(=O)O)C(=O)N[C@@H](CCC(N)=O)C(=O)N[C@@H](CCC(=O)O)C(=O)N[C@@H](CCCCN)C(=O)N[C@@H](CCC(N)=O)C(=O)N[C@@H](CCCCN)C(=O)N[C@@H](CCCCN)C(=O)N[C@@H](CCC(N)=O)C(=O)N[C@@H](CCCNC(=N)N)C(=O)N[C@@H](CCC(=O)O)C(=O)N[C@@H](CCC(N)=O)C(=O)N[C@@H](C)C(=O)N[C@@H](CCC(=O)O)C(=O)N[C@H](C(=O)N[C@@H](CC(N)=O)C(=O)NC1(CC(=O)N[C@@H](CCC(N)=O)C(=O)N[C@H](C(=O)N[C@@H](CC(C)C)C(=O)N[C@@H](C)C(=O)N[C@@H](CCC(N)=O)C(=O)N[C@H](C(N)=O)C(C)C)[C@@H](C)CC)CCOCC1)[C@@H](C)O)[C@@H](C)CC)[C@@H](C)CC)C(C)C)C(C)C"}}, "key": {"CRF1R receptor": {"molecular_target": "T1, CRF1R receptor (UniProt P34998 24-415, limits assumed)", "T1 sequence (looked up)": "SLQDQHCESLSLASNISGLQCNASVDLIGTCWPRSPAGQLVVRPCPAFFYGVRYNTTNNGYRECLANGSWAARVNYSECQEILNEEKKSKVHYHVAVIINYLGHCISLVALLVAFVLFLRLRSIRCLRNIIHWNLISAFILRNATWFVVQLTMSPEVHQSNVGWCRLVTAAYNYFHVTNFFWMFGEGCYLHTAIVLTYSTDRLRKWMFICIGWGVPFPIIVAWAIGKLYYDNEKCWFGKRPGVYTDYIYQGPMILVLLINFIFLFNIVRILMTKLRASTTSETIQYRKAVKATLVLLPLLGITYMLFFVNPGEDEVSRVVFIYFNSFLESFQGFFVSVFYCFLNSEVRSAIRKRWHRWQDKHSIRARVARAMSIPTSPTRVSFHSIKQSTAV", "test": "cell-based or functional assay"}, "[1]": {"molecular_target": "human corticotropin-releasing factor 2a (CRF2a receptor) (human), Q13324", "sequence (Q13324 20-411)": "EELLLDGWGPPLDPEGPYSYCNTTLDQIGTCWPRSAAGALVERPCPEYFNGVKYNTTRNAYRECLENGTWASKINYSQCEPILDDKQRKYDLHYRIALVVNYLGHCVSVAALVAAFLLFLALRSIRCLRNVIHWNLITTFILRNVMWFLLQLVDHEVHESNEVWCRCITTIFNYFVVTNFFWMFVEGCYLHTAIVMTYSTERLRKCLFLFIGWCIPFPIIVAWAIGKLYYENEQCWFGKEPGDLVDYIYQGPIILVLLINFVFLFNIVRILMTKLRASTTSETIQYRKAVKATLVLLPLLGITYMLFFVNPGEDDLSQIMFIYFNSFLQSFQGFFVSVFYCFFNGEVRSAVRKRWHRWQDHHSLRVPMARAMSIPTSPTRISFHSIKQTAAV", "test": "cell-based or functional assay"}}, "note": "*1 amine or outer side, *2 acyl side, *3 side chain or, on linkers, in order; H or OH if unused. Primed or numbered codes have the meaning given here. Where no end group is shown, it is not given here. Side-chain parts run from the residue outwards. [ ]: non-standard residue; d: D form. The star is where a group is joined. Thp′ = 4-amino-tetrahydro-2H-pyran-4-yl-acetic acid, O=C(CC1(N[*:1])CCOCC1)[*:2]; ThP = 4-amino-tetrahydro-2H-pyran-4-yl-acetic acid, O=C(CC1(N[*:1])CCOCC1)[*:2]; C18 diacid = O=C(O)CCCCCCCCCCCCCCCCC(=O)*; C16 diacid = O=C(O)CCCCCCCCCCCCCCC(=O)*; γGlu = O=C(O)[C@H](CCC(=O)[*:2])N[*:1]; NMeI = CC[C@H](C)[C@H](NC)C(=O)O; Ac6c = NC1(C(=O)O)CCCCC1"}
{"binder": "B1", "values": [{"measurement": "Emax (% I)", "setting": "CRF1R receptor", "value": 37, "unit": "%"}, {"measurement": "EC50 [nM] (cAMP)", "setting": "[1]", "value": 0.04, "unit": "nM"}]}
{"binder": "B2", "values": [{"measurement": "Emax (% I)", "setting": "CRF1R receptor", "value": 9, "unit": "%"}, {"measurement": "EC50 [nM] (cAMP)", "setting": "[1]", "value": 0.81, "unit": "nM"}]}
{"binder": "Ac-IVLSLD[dV]PIKLK([γGlu-C16 diacid])KILLEQEKQKKQREQAETN[Thp′]QILAQV-NH2", "note": "[SEQ ID NO 58]", "values": [{"measurement": "EC50", "setting": "CRF1R receptor", "value": "> 250", "unit": "nM"}, {"measurement": "Emax (% I)", "setting": "CRF1R receptor", "value": 6, "unit": "%"}, {"measurement": "EC50 [nM] (cAMP)", "setting": "[1]", "value": 0.41, "unit": "nM"}]}
{"binder": "B3", "values": [{"measurement": "Emax (% I)", "setting": "CRF1R receptor", "value": 3, "unit": "%"}, {"measurement": "EC50 [nM] (cAMP)", "setting": "[1]", "value": 0.07, "unit": "nM"}]}
{"binder": "B4", "values": [{"measurement": "EC50", "setting": "CRF1R receptor", "value": "> 250", "unit": "nM"}, {"measurement": "Emax (% I)", "setting": "CRF1R receptor", "value": 11, "unit": "%"}, {"measurement": "EC50 [nM] (cAMP)", "setting": "[1]", "value": 0.16, "unit": "nM"}]}
